Assay results taken from the supplement of paper PMC9170038.

System: MS2 coat protein
Assay: apparent KD of MS2 coat protein; designed switch direction (-1 OFF switch, 1 ON switch): -1; higher = weaker reporter binding
Procedure, shortened: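 Three titration conditions were used: no input, 200 uM small-molecule ligand, and an oligonucleotide input. In each, SNAP-549-labelled MS2 coat protein was raised from 0.7 or 1.5 nM, doubling, to 3 µM over designed RNA switches transcribed on Illumina chips by stalled E. coli RNA polymerase. Curve fits of normalised cluster fluorescence gave values whose per-design median over clusters is the apparent KD.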

[1] = input ligand: microRNA oligo, concentration not stated
[2] = Eterna round: R95, input ligand: FMN 200 uM
[3] = Eterna round: R95, input ligand: microRNA oligo, concentration not stated
[4] = Eterna round: R95, input ligand: none

Sequence: AUAUAGCGAGGAUAUACAUGAGGAUCACCCAUGUAGGUUCCGGGUUUUCCAGUAAAAUGUAGAAGGCGCAUGGA [EX3 B.5] (Eterna round: R97, puzzle: Exclusion 3)
- apparent KD of MS2 coat protein (input ligand: FMN 200 uM): 0.0994 µM
- apparent KD of MS2 coat protein (input ligand: none): 0.0446 µM

Sequence: ACAUGAGGAUCACCCAUGUUGUACUGGAUAGGGUGGUCCAGGUAGGAUAUGCAAACGCGUUGCGAGCAGAAGGACCACAGCCAG [Ceed] (Eterna round: R96, puzzle: Exclusion NG 3)
- apparent KD of MS2 coat protein (input ligand: FMN 200 uM): 0.0498 µM
- apparent KD of MS2 coat protein [1]: 0.0294 µM
- apparent KD of MS2 coat protein (input ligand: none): 0.0353 µM

Sequence: GGAGGACGAGCAGGAUAUUUUCACAUGAGGAUCACCCAUGUGUACUCAGGGUAAUCCUCCGCCGAAAAGAAGGGUUCGGAAGAA [JL ViennaUCT Socedi mod 1] (Eterna round: R96, puzzle: Exclusion NG 2)
- apparent KD of MS2 coat protein (input ligand: FMN 200 uM): 0.0467 µM
- apparent KD of MS2 coat protein [1]: 0.0332 µM
- apparent KD of MS2 coat protein (input ligand: none): 0.0508 µM

Sequence: UAUGUUAGCACAGGAUAUUGUUAUUUUUUUUUUCAAGAAGGGUGUACAUGAGGAUCACCCAUGUUAUGGUUUUAUCUUUUACAA [JR_ExcNG1_Sub012] (Eterna round: R96, puzzle: Exclusion NG 1)
- apparent KD of MS2 coat protein (input ligand: FMN 200 uM): 0.877 µM
- apparent KD of MS2 coat protein [1]: 0.247 µM
- apparent KD of MS2 coat protein (input ligand: none): 0.809 µM

Sequence: CCCAUGUUAGGAUAUAUGGAAGGGCAGACGGGCGCCCUAAGGUAGAAGGAACAUGAGGAUCACCCAUGUAAUAA [Zausteesre] (Eterna round: R97, puzzle: Exclusion 4)
- apparent KD of MS2 coat protein (input ligand: FMN 200 uM): 0.113 µM
- apparent KD of MS2 coat protein (input ligand: none): 0.0673 µM

Sequence: GGAAAGCAAGGAUAUACAAGGAGAAGGAGGAAAGUAAAAGGACAUGAGGAUCACCCAUGUAGAAGGUGCGAGAG [JR_Exclu2_Sub039] (puzzle: Exclusion 2)
- apparent KD of MS2 coat protein [2]: 0.0319 µM
- apparent KD of MS2 coat protein [3]: 0.029 µM
- apparent KD of MS2 coat protein [4]: 0.0435 µM

Sequence: GUUAGCGUAGGAUAUUAGUACAUGAACAUGAGGAUCACCCAUGUGAGGUGGGUCUUAGAUUAAGAAGGGCGAAGAA [EX5 #31] (Eterna round: R97, puzzle: Exclusion 5)
- apparent KD of MS2 coat protein (input ligand: FMN 200 uM): 0.387 µM
- apparent KD of MS2 coat protein (input ligand: none): 0.447 µM

Sequence: GUAUAUAGUGUGAGGAUAUGCUGGUCCUUGGAUCAGCAGAAGGCACAUGAGGAUCACCCAUGUAGUUAAAUAUG [Mat - Exclusion 4 - JL Mod - D21] (puzzle: Brourd's mod of Exclusion 4)
- apparent KD of MS2 coat protein [3]: 0.0263 µM

Sequence: AGUGUGUGGCAGGAUAUUCUAAUCGUGAGUAGGGAAGAAGGGUCUACAUGAGGAUCACCCAUGUAAGCGGUUGA [Ex6 #43] (Eterna round: R97, puzzle: Exclusion 6)
- apparent KD of MS2 coat protein (input ligand: FMN 200 uM): 0.257 µM
- apparent KD of MS2 coat protein (input ligand: none): 0.209 µM

Sequence: GCCCGGGCAGGAUAUACAAUGAAGUUGAGAAAUCGGCUUCGACAUGAGGAUCACCCAUGUAGAAGGGCCCGGGC [-36.9, -34.6 kcal, A 28% 3] (Eterna round: R97, puzzle: Exclusion 2)
- apparent KD of MS2 coat protein (input ligand: FMN 200 uM): 0.0176 µM
- apparent KD of MS2 coat protein (input ligand: none): 0.0146 µM

Sequence: GCAUCCAAAGUGAGGAUAUACCUCUGGAUACAGAGGUAGAAGGCACAUGAGGAUCACCCAUGUUUCUAGGAUGC [Fiskers BMX 4 - 37] (puzzle: Brourd's mod of Exclusion 4)
- apparent KD of MS2 coat protein [2]: 0.0212 µM
- apparent KD of MS2 coat protein [3]: 0.0133 µM
- apparent KD of MS2 coat protein [4]: 0.0139 µM

Sequence: UACAAGCUUUUAAGAUCCUACAUGAGGAUCACCCAUGUGCUCGUCUUAUAACGUACUGUGACGAAAGUCACGGUACG [JL TOV1 3.21] (Eterna round: R97, puzzle: Sensor, turn-off variant 1)
- apparent KD of MS2 coat protein (input ligand: FMN 200 uM): 0.0929 µM
- apparent KD of MS2 coat protein (input ligand: none): 0.103 µM

Sequence: CUGCUGGAGCGGCGCUUUGGUCGUACAUGAGGAUCACCCAUGUAGGAUAUGGUAAAAUUUGCUUGCUAGAAGGAUAGAGUGGUC [salish99_ExNG3_r04_615] (Eterna round: R96, puzzle: Exclusion NG 3)
- apparent KD of MS2 coat protein (input ligand: FMN 200 uM): 0.14 µM
- apparent KD of MS2 coat protein [1]: 0.0645 µM
- apparent KD of MS2 coat protein (input ligand: none): 0.0803 µM

Sequence: UAUUUGCAAGCGAGAUCCCACAUGAGGAUCACCCAUGUGCUCGUCUUAUAAGGUACUGUGACGAUAGUCACGGUACC [Mat - Sensor, turn-off var - Eli Mod - D89] (Eterna round: R97, puzzle: Sensor, turn-off variant 1)
- apparent KD of MS2 coat protein (input ligand: FMN 200 uM): 0.014 µM
- apparent KD of MS2 coat protein (input ligand: none): 0.0144 µM

Sequence: GAUUAUGCGAGCUUUAGGGACAUGAGGAUCACCCAUGUUCGUCUUAUUAAUCUGGGUGCACUGACAUACCUAAAUCU [JMF 92] (puzzle: Sensor v3, turn-off variant 1)
- apparent KD of MS2 coat protein [2]: 0.0909 µM
- apparent KD of MS2 coat protein [3]: 0.0819 µM
- apparent KD of MS2 coat protein [4]: 0.132 µM

Sequence: GACUGGACAGGAUAUGUUCUUGAGCACUUGAGGAUCACCCAAGUCAUCAAGAACUCAGGCACAGAAGGGUUUAUGA [salish99_ex5_r4_008] (Eterna round: R97, puzzle: Exclusion 5)
- apparent KD of MS2 coat protein (input ligand: FMN 200 uM): 0.0296 µM
- apparent KD of MS2 coat protein (input ligand: none): 0.0135 µM

Sequence: CAAGCCUGAACGGCCGCUCACAUGAGGAUCACCCAUGUCACCUGUGCUAGAGGACCACAUUAAUCGCUUCGUCUUGG [Eternabot (L1) Solution 7] (Eterna round: R97, puzzle: Sensor, turn-off variant 1)
- apparent KD of MS2 coat protein (input ligand: FMN 200 uM): 0.0698 µM
- apparent KD of MS2 coat protein (input ligand: none): 0.0889 µM

Sequence: AAGUACCGUCACGAUAGUGAUGGUACAACAAGUGAAUGUACAUGAGGAUCACCCAUGUCCUCUUUUGCUCGUCUUAU [Sensor 3 - 92] (puzzle: Sensor v3, turn-off variant 2)
- apparent KD of MS2 coat protein [2]: 0.151 µM
- apparent KD of MS2 coat protein [3]: 0.0309 µM
- apparent KD of MS2 coat protein [4]: 0.184 µM

Sequence: UGGAGUAUGUAGGAUAUUCAGGCAAAGAAAGCCGAAGAAGGACAUACUUGAGGAUCACCCAAGUUGUCCAAAAU [Zaanatatri] (Eterna round: R97, puzzle: Exclusion 6)
- apparent KD of MS2 coat protein (input ligand: FMN 200 uM): 0.0258 µM
- apparent KD of MS2 coat protein (input ligand: none): 0.0151 µM

Sequence: UUUAGUUCAGGAUAUGUAGACAUUAACAUGAGGAUCACCCAUGUAGAUCCUGAAUUGGCUACAGAAGGGAGCAUUU [Mod of Brourd 10 - Jieux - Exclusion 5] (Eterna round: R97, puzzle: Exclusion 5)
- apparent KD of MS2 coat protein (input ligand: FMN 200 uM): 0.109 µM
- apparent KD of MS2 coat protein (input ligand: none): 0.0284 µM

Sequence: AUCAGCUCGUGAGGAUAUACAUGAGGAUCACCCAUGUGGUCAUUAGCAGCUUCGGCUGCAUUAAUGUAGAAGGCACGAGCUGAU [ENG2/8-A2] (Eterna round: R96, puzzle: Exclusion NG 2)
- apparent KD of MS2 coat protein (input ligand: FMN 200 uM): 0.36 µM
- apparent KD of MS2 coat protein [1]: 0.732 µM
- apparent KD of MS2 coat protein (input ligand: none): 0.829 µM

Sequence: GGUCUGCGAGGAUAUACAUGAGGAUCACCCAUGUGAGAGUUACUAGUGAGGUCGAUUGGUAGAAGGCGCGGACG [JL-ex3-2.04 salish99 mod] (puzzle: Exclusion 3)
- apparent KD of MS2 coat protein [2]: 0.019 µM
- apparent KD of MS2 coat protein [3]: 0.103 µM
- apparent KD of MS2 coat protein [4]: 0.154 µM

Sequence: AGUGUCUUAGGAUAUACAUGAGGAUCACCCAUGUUAACAUUCCUUCGCGGUAUCGCAUGUAGAAGGAGGAUAUG [Eternabot (L1) Solution 68] (Eterna round: R97, puzzle: Exclusion 3)
- apparent KD of MS2 coat protein (input ligand: FMN 200 uM): 0.0331 µM
- apparent KD of MS2 coat protein (input ligand: none): 0.0268 µM

Sequence: CCGUGUUUAGGAUAUGCUAUGGAAGUGUUAAUAUUCAUUAGACAUGAGGAUCACCCAUGUAGAAGGAGGCCGCG [Eternabot (L1) Solution 96] (Eterna round: R97, puzzle: Exclusion 2)
- apparent KD of MS2 coat protein (input ligand: FMN 200 uM): 0.34 µM
- apparent KD of MS2 coat protein (input ligand: none): 0.142 µM

Sequence: GGUGAAGCAGGAUAUGUACCAAUAUACAUGAGGAUCACCCAUGUCAUGUAGGAACUGCGUAUAGAAGGGCUUCACC [Exclusion 5 (FMN-MS2 slide v.7)] (Eterna round: R97, puzzle: Exclusion 5)
- apparent KD of MS2 coat protein (input ligand: FMN 200 uM): 0.123 µM
- apparent KD of MS2 coat protein (input ligand: none): 0.055 µM

Sequence: GAUUAUGCGAGCUUUAGGGACAUGAGGAUCACCCAUGUUCGUCUUAUUGAUCUAGGUACGCUGACGUACCUAGAUCU [JL-sv1-2.35 Brourd mod] (puzzle: Sensor v3, turn-off variant 1)
- apparent KD of MS2 coat protein [2]: 0.0219 µM
- apparent KD of MS2 coat protein [3]: 0.0337 µM
- apparent KD of MS2 coat protein [4]: 0.0218 µM

Sequence: GCUUGUGGGCAAGGAUAUCCUACGUUGUUCUGGUUCGUGUCUGUCACAUGAGGAUCACCCAUGUGGGAGAAGGUGCCUUUGGUG [Design 62] (Eterna round: R96, puzzle: Exclusion NG 2)
- apparent KD of MS2 coat protein (input ligand: FMN 200 uM): 0.0232 µM
- apparent KD of MS2 coat protein [1]: 0.0092 µM
- apparent KD of MS2 coat protein (input ligand: none): 0.0156 µM

Sequence: UAACUUUUUGUAAGGAUAUCGGUCCCAAGGGACAACGAGAAGGUACAUGAGGAUCACCCAUGUGAAAUAAGAAU [Mod of Zala 20 - Jieux - Brourd's Mod of Exclusion 4] (Eterna round: R97, puzzle: Brourd's mod of Exclusion 4)
- apparent KD of MS2 coat protein (input ligand: FMN 200 uM): 0.154 µM
- apparent KD of MS2 coat protein (input ligand: none): 0.0227 µM

Sequence: GCGGGCCCGGGAGGAUAUACAUGAGGAUCACCCAUGUGGGCCCGGGCCCGCGGGCCCGGGCCCGUGUAGAAGGCCCGGGCCCGC [-64.9, -63.3 kcal, A 14%] (Eterna round: R96, puzzle: Exclusion NG 2)
- apparent KD of MS2 coat protein (input ligand: FMN 200 uM): 0.028 µM
- apparent KD of MS2 coat protein [1]: 0.0101 µM
- apparent KD of MS2 coat protein (input ligand: none): 0.0142 µM

Sequence: UAGAUACAUGAGGAUCACCCAUGUGAGGAUAUGAGAAUUAUAUUAAAUGAAUUAAUUUUCAGAAGGCACAAAGG [JR_Ex1_Sub052] (Eterna round: R97, puzzle: Exclusion 1)
- apparent KD of MS2 coat protein (input ligand: FMN 200 uM): 0.177 µM
- apparent KD of MS2 coat protein (input ligand: none): 0.166 µM

Sequence: CCUCUACAUGAGGAUCACCCAUGUGAGGAUAUCUCGGAGCAGCCACUUAAAGCACUCCAGAGAAGGCACGUGUA [Mavemain] (puzzle: Exclusion 1)
- apparent KD of MS2 coat protein [3]: 0.0155 µM

Sequence: ACAUGUAAUGCAGGAUAUGGGACACAUGAGGAUCACCCAUGUUACCAUAUGUAAUGCUAAGAGUCUCAGAAGGGUAUGUACAUG [Ex NG2 #47] (Eterna round: R96, puzzle: Exclusion NG 2)
- apparent KD of MS2 coat protein (input ligand: FMN 200 uM): 0.0086 µM
- apparent KD of MS2 coat protein [1]: 0.0122 µM
- apparent KD of MS2 coat protein (input ligand: none): 0.0156 µM

Sequence: GGGCUCACGGUCAGGAUAUGUAAAACGUAAGUAUUAUAGAAGGGACAUGAGGAUCACCCAUGUGUGAUGAGCGC [Eternabot (L1) Solution 37] (Eterna round: R97, puzzle: Brourd's mod of Exclusion 4)
- apparent KD of MS2 coat protein (input ligand: FMN 200 uM): 0.323 µM
- apparent KD of MS2 coat protein (input ligand: none): 0.124 µM
